Consider 2 molecules from patent US20220098328A1, “ANTIBODIES TO M(H)DM2/4 AND THEIR USE IN DIAGNOSING AND TREATING CANCER” (NomoCan Pharmaceuticals LLC, priority 2017, published 2022).

For experiment [1], the system named is mouse pancreatic cancer Panc-2 cells. Description: Panc-2 syngeneic mouse model of pancreatic cancer. It is filed as in vivo. On the procedure:
Methodology used (Syngeneic Mouse Models of lung, colon and pancreatic cancer): To investigate the anti-tumor effects of HDM2-specific antibodies on lung, colon and pancreatic tumors in vivo, three well-known syngeneic mouse models of lung, colon and pancreatic cancer were used (Sharma et al., 1999, J. Immunol. 163 (9):5020-5028; McIntyre, 2015, Bioassays 37(8):909-920; Li, et al., 2015, Sci. Rep. 5:7856). Subcutaneous tumors were prepared by implanting either mouse Lewis Lung cancer LL/2 cells (2.5×10^5 cells/mouse), mouse colon cancer MC-38 cells (5×10^5 cells/mouse) or mouse pancreatic cancer Panc-2 cells (2×10^6 cells/mouse) in the right flanks of 8-week-old female C57BL/6 mice (n=6-7). The mice were returned to their respective cages after tumor implantation. From day 7 after tumor implantation, the tumor volumes were measured 2 times/week with a digital caliper. In the case of MC-38 and Panc-2 study, treatment started when the tumors reached an average of 70-80 mm^3. In the case of LL/2 study, tumor cell inoculation and treatment were initiated simultaneously. Mice were micro-chipped and registered following tumor implantation. Tumor volume measurements and body weights were recorded and mice were randomized into groups that received: A) mAb NMC-103 at 0.4 mg/kg (3 times a week for 3 weeks), 2 mg/kg (2 times a week for 3 weeks), or 4 mg/kg (2 times a week for 3 weeks); B) NMC-204 at 0.4 mg/kg (3 times a week for 3 weeks); C) isotype control mouse IgG1 (Abcam, Cat. No. ab18447) or IgG3 (Abcam, Cat. No. ab18392) at 0.4 mg/kg (3 times a week for 3 weeks) or 4 mg/kg (2 times a week for 3 weeks); D) Gemcitabine (25 mg/kg) and nab-paclitaxel (5 mg/kg) 2 times a week for 3 weeks; or E) a combination of gemcitabine (25 mg/kg), nab-paclitaxel (5 mg/kg) and mAb NMC-103 (2 mg/kg; 2 times a week for 3 weeks) or (10 mg/kg; 2 times a week for 2 weeks). All tumors were injected subcutaneously and all treatments were performed by intraperitoneal injection. Any mouse displaying prolonged adverse clinical signs, or with body weight loss exceeding 15% relative to body weight at day 0, was euthanized. Tumor measurements from post-treatment with HDM2-specific antibodies versus isotype control mouse antibodies versus standard of care treatment (gemcitabine and nab-paclitaxel) were made, and results are presented in FIGS. 16-19.
The anti-tumor efficacy of NMC-103 and of its combination with pancreatic cancer standard of care treatment Gemcitabine (G) and nab-Paclitaxel (nP) was further evaluated in vivo utilizing the Panc-2 syngeneic mouse model of pancreatic cancer discussed above. In this Panc-2 study, treatment started after Panc-2 cell inoculation and when the tumors reached 80-100 mm^3, with mAb NMC-103 administered at 10 mg/kg, two times a week in a larger number of mice (n=8/group) than that used for the study of FIG. 19.
Evaluation of anti-tumor effects of antibody OP145 on pancreatic tumor growth in vivo: Subcutaneous tumors were prepared by implanting Panc02 cells (2×10^6 per mouse) in the right flanks of female 8-week-old C57BL/6 mice. The mice were returned to their respective cages after tumor implantation. From day 7 after tumor implantation, the tumor volumes were measured 2 times/week with a digital caliper. Treatment started when the tumors reached an average of 200 mm^3 (see FIG. 26, day 14). Mice were micro-chipped and registered following tumor implantation. Tumor volume measurements and body weights were recorded and mice were randomized into two groups that received either OP145 antibody (by intra-tumoral injection of 0.1 mg/kg of mouse monoclonal antibody OP145, 3 times per week) or PBS. Three mice were treated with OP145, and five mice were treated with PBS. Any mouse displaying prolonged adverse clinical signs, or with body weight loss exceeding 15% from Day 0 body weight, was euthanized. Tumor measurements from the first 10 days post treatment with OP145 antibody versus PBS were made, and results are represented in FIG. 26. […]

Another experiment has as its system OVCAR-3 cells. Description: Flow cytometry on live (7AAD negative) cells. It is filed as cell-based, human. On the procedure:
Cells that had been allowed to grow to about 80% confluency in 75 cm^2 tissue culture flasks were released with either EDTA (10 mmols; pH 7.2; 5 min, 37° C.) or Trypsin (Gibco TrypLE Express), washed several times with ice-cold PBS, and blocked for 20 minutes on ice with 5% human serum albumin in PBS (intact, non-permeabilized cells). After establishing viability, the cell number was adjusted to 10^6 cells/ml and kept in ice-cold PBS until staining. Cells were then incubated with primary antibodies NMC-H103 (VH4/VK3) or NMC-C303 (1 μg/ml) for 30 minutes on ice. Following primary antibody incubation, cells were washed 3 times with ice-cold PBS, followed by incubation with goat anti-human PE labeled secondary antibody (Life technologies H10104) on ice for 20 minutes. Cells were then washed 3 times with PBS and incubated with 7AAD (5 μl/[…] of buffer) before flow cytometry analysis using Fortessa 5.
(In general: Flow cytometry measures light scatter and fluorescence of single cells or particles in a stream.)

B1: NMC-103: mouse monoclonal antibody of the IgG1 isotype that binds to NMC-P1 (SEQ ID NO:1); VH SEQ ID NO:36, VL SEQ ID NO:37 (antibody, V domains shown)
VH: EVQLQESGGGLVQPGGSLRLSCTTSGFTFTHYYMSWVRQPPGKALEWLGFIRNKAKGYTAEYSASVKGRFTISRDNSQSILYLQMNTLRPEDSATYYCARDIGDNWGQGTLVTVSS
VL: DIVMTQAAFSNPVTLGTSASISCRSSKNLLHSNGITYLYWYLQRPGQSPQLLISRVSNLASGVPNRFSGSESGTDFTLRISRVEAEDVGVYFCAQLLELPYTFGGGTKLEIK
modifications: mAb NMC-103 Heavy Chain Variable Region; mAb NMC-103 Light Chain Variable Region
Regarding B1, in experiment [1] (Panc-2, n=6, start at ~70 mm^3, i.p. 2 times a week for 3 weeks (6th dose day 19), then 2 weeks off, antibody 2 mg/kg, Gemcitabine 25 mg/kg, nab-Paclitaxel 5 mg/kg, by day 35), the average tumor volume came out at 1523 mm^3. In experiment [1] (Panc-02, start at 80-100 mm^3, n=8/group, i.p. 2 times a week for 4 weeks, NMC-103 10 mg/kg, Gemcitabine 25 mg/kg, nab-Paclitaxel 5 mg/kg, by day 34, in NMC-103 groups attributed to scar and inflammation), the “average tumor size / measurement” value is 230 mm^3. Besides, the “tumor size 6 days post single i.p. injection” value in experiment [1] (Panc-2, mice pre-treated with Gemcitabine 25 mg/kg + nab-Paclitaxel 5 mg/kg for 19 days (~450 mm^3), single dose 10 mg/kg, from 438 mm^3) was found to be 233 mm^3. In experiment [1] (Panc-02 study of FIG. 27, up to 62 days since start), the “tumor growth during 4 further weeks without drug treatment” value is “no sign of tumor growth beyond the initial scar size”. In experiment [1] (conditions of FIG. 27, compared to chemotherapy alone or control antibody), the “Kaplan Meier survival analysis” value was “significant survival benefit”. Besides, in experiment [1] (previously treated mice re-challenged at day 62, 2×10^6 cells s.c. left dorsal flank, no further drug), the “tumor 10 days after re-challenge with Panc-2 cells” value was “no tumor was observed”.

B2: NMC-H103 (VH4/VK3): humanized NMC-103 variant, human IgG1, VH4 (SEQ ID NO:299) and VK3 (SEQ ID NO:297) (antibody, V domains shown)
VH: EVQLVESGGGLVQPGPSLRLSCTTSGFTFTHYYMSWVRQAPGKGLEWLGFIRNKAKGYTAEYSASVKGRFTISRDNSKSTLYLQMNSLRAEDTAVYYCARDIGDNWGQGTLVTVSS
VL: DIVMTQTPLSSPVTLGQPASISCRSSKNLLHSNGITYLYWYLQKPGQSPQLLISRVSNLASGVPDRFSGSESGTDFTLKISRVEAEDVGVYFCAQLLELPYTFGGGTKVEIK
modifications: human IgG1 constant regions lacking entries; mAb NMC-H103.VH4Heavy Chain Variable Region; mAb NMC-H103.VK3Light Chain Variable Region
As for B2, the “binding to live cells briefly treated with trypsin, flow cytometry” value in the experiment on OVCAR-3 cells (7AAD negative) is on record as “reduced”. In addition, the “binding to live (7AAD negative) cells, flow cytometry” value in the experiment on OVCAR-3 cells (antibody 1 μg/ml) is “binding”.
